Experimental data from the Human Domainome abundance scans (Beltran et al. 2025).
± gives the uncertainty stated by the source.

B1: Receptor-interacting serine/threonine-protein kinase 2, residues 438 to 518; numbered along this chain, O43353 (parent)
chain: QWIQSKREDIVNQMTEACLNQSLDALLSRDLIMKEDYELVSTKPTRTSKVRQLLDTTDIQGEEFAKVIVQKLKDNKQMGLQ

Variants of: B1
Experiment: abundance fitness (aPCA) (normalised: wild type 0, dead -1); higher = more abundant; growth selection in yeast, the domain comes from the species named
Conditions: Homo sapiens

Variant | abundance fitness
QWIQSKREDIVNQMTEACLNQSLDALLSRDLIMKEDYELCSTKPTRTSKVRQLLDTTDIQGEEFAKVIVQKLKDNKQMGLQ [V40C] | -0.302 ± 0.11
QWIQSKREDIVNQMTEACLNQSLDALLSRDLIMKEDYELSSTKPTRTSKVRQLLDTTDIQGEEFAKVIVQKLKDNKQMGLQ [V40S] | -0.603 ± 0.079
QWIQSKREDIVNQMTEACLNQSLDALLSRDLIMKEDYELDSTKPTRTSKVRQLLDTTDIQGEEFAKVIVQKLKDNKQMGLQ [V40D] | -0.754 ± 0.23
QWIQSKREDIVNQMTEACLNQSLDALLSRDLIMKEDYELTSTKPTRTSKVRQLLDTTDIQGEEFAKVIVQKLKDNKQMGLQ [V40T] | -0.997 ± 0.2
QWIQSKREDIVNQMTEACLNQSLDALLSRDLIMKEDYELASTKPTRTSKVRQLLDTTDIQGEEFAKVIVQKLKDNKQMGLQ [V40A] | -0.528 ± 0.085
QWIQSKREDIVNQMTEACLNQSLDALLSRDLIMKEDYELGSTKPTRTSKVRQLLDTTDIQGEEFAKVIVQKLKDNKQMGLQ [V40G] | -0.715 ± 0.081
QWIQSKREDIVNQMTEACLNQSLDALLSRDLIMKEDYELLSTKPTRTSKVRQLLDTTDIQGEEFAKVIVQKLKDNKQMGLQ [V40L] | -0.701 ± 0.1
QWIQSKREDIVNQMTEACLNQSLDALLSRDLIMKEDYELMSTKPTRTSKVRQLLDTTDIQGEEFAKVIVQKLKDNKQMGLQ [V40M] | -0.815 ± 0.22
QWIQSKREDIVNQMTEACLNQSLDALLSRDLIMKEDYELYSTKPTRTSKVRQLLDTTDIQGEEFAKVIVQKLKDNKQMGLQ [V40Y] | -0.438 ± 0.48
QWIQSKREDIVNQMTEACLNQSLDALLSRDLIMKEDYELWSTKPTRTSKVRQLLDTTDIQGEEFAKVIVQKLKDNKQMGLQ [V40W] | -1.04 ± 0.23
QWIQSKREDIVNQMTEACLNQSLDALLSRDLIMKEDYELNSTKPTRTSKVRQLLDTTDIQGEEFAKVIVQKLKDNKQMGLQ [V40N] | -0.466 ± 0.38
QWIQSKREDIVNQMTEACLNQSLDALLSRDLIMKEDYELPSTKPTRTSKVRQLLDTTDIQGEEFAKVIVQKLKDNKQMGLQ [V40P] | -0.732 ± 0.11
QWIQSKREDIVNQMTEACLNQSLDALLSRDLIMKEDYELESTKPTRTSKVRQLLDTTDIQGEEFAKVIVQKLKDNKQMGLQ [V40E] | -0.682 ± 0.13
QWIQSKREDIVNQMTEACLNQSLDALLSRDLIMKEDYELFSTKPTRTSKVRQLLDTTDIQGEEFAKVIVQKLKDNKQMGLQ [V40F] | -0.436 ± 0.18
QWIQSKREDIVNQMTEACLNQSLDALLSRDLIMKEDYELHSTKPTRTSKVRQLLDTTDIQGEEFAKVIVQKLKDNKQMGLQ [V40H] | 0.095 ± 0.37
QWIQSKREDIVNQMTEACLNQSLDALLSRDLIMKEDYELISTKPTRTSKVRQLLDTTDIQGEEFAKVIVQKLKDNKQMGLQ [V40I] | 0.146 ± 0.19
QWIQSKREDIVNQMTEACLNQSLDALLSRDLIMKEDYELRSTKPTRTSKVRQLLDTTDIQGEEFAKVIVQKLKDNKQMGLQ [V40R] | -0.836 ± 0.082

Variant | abundance fitness
QWIQSKREDIVNQMTEACLNQSLDALLSRDLIMKEDYWLVSTKPTRTSKVRQLLDTTDIQGEEFAKVIVQKLKDNKQMGLQ [E38W] | -0.12 ± 0.095
QWIQSKREDIVNQMTEACLNQSLDALLSRDLIMKEDYMLVSTKPTRTSKVRQLLDTTDIQGEEFAKVIVQKLKDNKQMGLQ [E38M] | -0.088 ± 0.25
QWIQSKREDIVNQMTEACLNQSLDALLSRDLIMKEDYYLVSTKPTRTSKVRQLLDTTDIQGEEFAKVIVQKLKDNKQMGLQ [E38Y] | -0.237 ± 0.12
QWIQSKREDIVNQMTEACLNQSLDALLSRDLIMKEDYRLVSTKPTRTSKVRQLLDTTDIQGEEFAKVIVQKLKDNKQMGLQ [E38R] | -0.227 ± 0.072
QWIQSKREDIVNQMTEACLNQSLDALLSRDLIMKEDYALVSTKPTRTSKVRQLLDTTDIQGEEFAKVIVQKLKDNKQMGLQ [E38A] | -0.129 ± 0.075
QWIQSKREDIVNQMTEACLNQSLDALLSRDLIMKEDYILVSTKPTRTSKVRQLLDTTDIQGEEFAKVIVQKLKDNKQMGLQ [E38I] | 0.053 ± 0.15
QWIQSKREDIVNQMTEACLNQSLDALLSRDLIMKEDYFLVSTKPTRTSKVRQLLDTTDIQGEEFAKVIVQKLKDNKQMGLQ [E38F] | -0.221 ± 0.11
QWIQSKREDIVNQMTEACLNQSLDALLSRDLIMKEDYHLVSTKPTRTSKVRQLLDTTDIQGEEFAKVIVQKLKDNKQMGLQ [E38H] | -0.06 ± 0.13
QWIQSKREDIVNQMTEACLNQSLDALLSRDLIMKEDYCLVSTKPTRTSKVRQLLDTTDIQGEEFAKVIVQKLKDNKQMGLQ [E38C] | -0.719 ± 0.13
QWIQSKREDIVNQMTEACLNQSLDALLSRDLIMKEDYQLVSTKPTRTSKVRQLLDTTDIQGEEFAKVIVQKLKDNKQMGLQ [E38Q] | -0.165 ± 0.12
QWIQSKREDIVNQMTEACLNQSLDALLSRDLIMKEDYGLVSTKPTRTSKVRQLLDTTDIQGEEFAKVIVQKLKDNKQMGLQ [E38G] | -0.509 ± 0.084
QWIQSKREDIVNQMTEACLNQSLDALLSRDLIMKEDYTLVSTKPTRTSKVRQLLDTTDIQGEEFAKVIVQKLKDNKQMGLQ [E38T] | -0.157 ± 0.076
QWIQSKREDIVNQMTEACLNQSLDALLSRDLIMKEDYVLVSTKPTRTSKVRQLLDTTDIQGEEFAKVIVQKLKDNKQMGLQ [E38V] | -0.226 ± 0.1
QWIQSKREDIVNQMTEACLNQSLDALLSRDLIMKEDYKLVSTKPTRTSKVRQLLDTTDIQGEEFAKVIVQKLKDNKQMGLQ [E38K] | -0.216 ± 0.2
QWIQSKREDIVNQMTEACLNQSLDALLSRDLIMKEDYNLVSTKPTRTSKVRQLLDTTDIQGEEFAKVIVQKLKDNKQMGLQ [E38N] | -0.463 ± 0.13
QWIQSKREDIVNQMTEACLNQSLDALLSRDLIMKEDYSLVSTKPTRTSKVRQLLDTTDIQGEEFAKVIVQKLKDNKQMGLQ [E38S] | -0.375 ± 0.07
QWIQSKREDIVNQMTEACLNQSLDALLSRDLIMKEDYLLVSTKPTRTSKVRQLLDTTDIQGEEFAKVIVQKLKDNKQMGLQ [E38L] | -0.075 ± 0.076
